The results in this text go back to article PMC7802950, “Characteristics and expression patterns of six α-galactosidases in cucumber (Cucumis sativus L.)” (PLoS ONE, 2021).

Common to all, as to details: pH and temperature of Km assay not stated
Series [1] deals with O=[N+]([O-])c1ccc(O[C@H]2O[C@H](CO)[C@H](O)[C@H](O)[C@H]2O)cc1. The experiment in a line: purified protein.
For series [2], the system named is T1, OC[C@H]1O[C@H](OC[C@H]2O[C@H](OC[C@H]3O[C@H](O[C@]4(CO)O[C@H](CO)[C@@H](O)[C@@H]4O)[C@H](O)[C@@H](O)[C@@H]3O)[C@H](O)[C@@H](O)[C@H]2O)[C@H](O)[C@@H](O)[C@H]1O.
T1 construct: coding region in pAcHLT, baculovirus/Sf9 insect cells; 6xHis tag removed by thrombin
The experiment in a line: Lineweaver-Burk plot, hydrolysis. The series is classed as biochemical, Cucumis sativus.

Series [3] has as its system T2, OC[C@H]1O[C@H](OC[C@H]2O[C@H](O[C@]3(CO)O[C@H](CO)[C@@H](O)[C@@H]3O)[C@H](O)[C@@H](O)[C@@H]2O)[C@H](O)[C@@H](O)[C@H]1O.
T2 construct: coding region in pAcHLT, baculovirus/Sf9 insect cells; 6xHis tag removed by thrombin
The experiment in a line: Lineweaver-Burk plot, hydrolysis. The series is classed as biochemical, Cucumis sativus.

Chain of CsGAL3 (Cucumis sativus) (chain, as listed by the source): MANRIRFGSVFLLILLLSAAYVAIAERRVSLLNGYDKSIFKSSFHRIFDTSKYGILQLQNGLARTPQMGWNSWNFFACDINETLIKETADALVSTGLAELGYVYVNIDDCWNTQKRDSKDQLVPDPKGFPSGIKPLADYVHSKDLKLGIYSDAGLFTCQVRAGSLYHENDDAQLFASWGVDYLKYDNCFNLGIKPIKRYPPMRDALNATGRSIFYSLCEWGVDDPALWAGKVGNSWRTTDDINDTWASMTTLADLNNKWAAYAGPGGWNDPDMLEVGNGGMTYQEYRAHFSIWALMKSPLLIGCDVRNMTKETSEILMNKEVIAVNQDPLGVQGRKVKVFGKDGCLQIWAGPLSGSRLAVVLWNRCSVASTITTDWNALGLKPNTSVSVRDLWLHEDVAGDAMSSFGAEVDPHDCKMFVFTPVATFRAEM
Chain of CsGAL2 (Cucumis sativus) (chain, as listed by the source): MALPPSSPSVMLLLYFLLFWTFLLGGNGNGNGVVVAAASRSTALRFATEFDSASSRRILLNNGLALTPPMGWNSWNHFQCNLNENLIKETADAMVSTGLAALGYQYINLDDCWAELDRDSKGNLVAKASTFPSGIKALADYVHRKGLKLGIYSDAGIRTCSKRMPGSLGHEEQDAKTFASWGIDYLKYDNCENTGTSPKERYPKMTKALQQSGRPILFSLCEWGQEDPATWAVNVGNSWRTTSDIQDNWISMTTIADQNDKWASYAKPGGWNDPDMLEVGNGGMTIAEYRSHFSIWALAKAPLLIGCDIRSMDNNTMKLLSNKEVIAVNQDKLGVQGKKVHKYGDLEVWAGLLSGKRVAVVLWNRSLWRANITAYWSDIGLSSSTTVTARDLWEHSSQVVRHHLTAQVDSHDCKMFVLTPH
Chain of CsGAL1 (Cucumis sativus) (chain, as listed by the source): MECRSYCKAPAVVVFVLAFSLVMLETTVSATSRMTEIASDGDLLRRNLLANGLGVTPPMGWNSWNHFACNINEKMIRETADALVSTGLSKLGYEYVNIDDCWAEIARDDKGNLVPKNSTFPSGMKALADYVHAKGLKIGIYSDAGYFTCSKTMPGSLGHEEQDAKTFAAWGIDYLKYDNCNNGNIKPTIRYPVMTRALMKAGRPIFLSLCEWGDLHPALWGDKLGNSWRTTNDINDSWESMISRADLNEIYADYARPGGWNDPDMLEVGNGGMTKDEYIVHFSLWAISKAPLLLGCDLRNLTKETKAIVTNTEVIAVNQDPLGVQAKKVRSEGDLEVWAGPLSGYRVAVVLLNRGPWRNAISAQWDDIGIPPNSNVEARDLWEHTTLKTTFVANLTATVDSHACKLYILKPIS

On to CsGAL2 (Cucumis sativus), for which the results for the Km in series [1], in series [2] and in series [3] were 1.35 ± 0.23 mM, 11.85 ± 2.05 mM and 5.63 ± 0.67 mM, respectively.

For CsGAL3 (Cucumis sativus), the figures for the Km in series [1], in series [2] and in series [3] were 0.99 ± 0.10 mM, 18.92 ± 2.56 mM and 3.24 ± 0.70 mM, respectively.

As to CsGAL1 (Cucumis sativus), the Michaelis constant (Km) stood at 0.89 ± 0.12 mM in series [1], 12.3 ± 1.92 mM in series [2] and 4.71 ± 0.85 mM in series [3].
